The target of this assay is T1, muIL-27 (Mus musculus, UniProt O35228+Q8K3I6).
T1 construct: purchased R&D Systems
T1 sequence (Q8K3I6 29-234): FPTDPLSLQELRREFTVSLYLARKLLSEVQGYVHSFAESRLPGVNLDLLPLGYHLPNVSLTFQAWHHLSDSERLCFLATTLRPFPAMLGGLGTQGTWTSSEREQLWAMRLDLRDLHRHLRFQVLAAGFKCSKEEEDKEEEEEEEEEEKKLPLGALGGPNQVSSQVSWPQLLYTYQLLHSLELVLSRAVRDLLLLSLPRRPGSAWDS
T1 sequence (O35228 19-228): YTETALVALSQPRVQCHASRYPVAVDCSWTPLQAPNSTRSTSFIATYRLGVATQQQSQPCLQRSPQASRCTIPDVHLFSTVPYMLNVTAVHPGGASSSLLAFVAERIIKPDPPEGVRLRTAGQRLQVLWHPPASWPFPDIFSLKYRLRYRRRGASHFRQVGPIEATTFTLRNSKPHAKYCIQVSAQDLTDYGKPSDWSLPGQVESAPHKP
The assay is described as follows: Phospho-STAT3 (BIO-PLEX) neutralization of IL-27 by soluble receptors, total human PBMCs. It is filed as cell-based. The settings on record: ligand muIL-27 at EC90 (2 nM). The text has this: Whole mouse spleens were harvested from C57 B1/6 mice and washed two times with 1×PBS before being plated out at 2×10^5 cells/well in assay media (RPMI 1640 plus 10% fetal bovine serum) in 96-well, round-bottom tissue culture plates. Total human PBMC (peripheral blood mononuclear cells) were thawed from a frozen vial collected from a leukapherisis donation and washed two times with 1×PBS before being plated out at 10^6 cells/well in assay media in 96-well, round-bottom tissue culture plates. […] Following pre-incubation, treatments were added to the plates containing the cells and incubated together at 37° C. for 15 minutes.
Following incubation, cells were washed with ice-cold wash buffer (BIO-PLEX Cell Lysis Kit, BIO-RAD Laboratories, Hercules, Calif.) and put on ice to stop the reaction according to manufacturer's instructions. […]
Capture beads (BIO-PLEX Phospho-Stat3 Assay, BIO-RAD Laboratories) were combined with 50 μL of 1:1 diluted lysates and added to a 96-well filter plate according to manufacture's instructions (BIO-PLEX Phosphoprotein Detection Kit, BIO-RAD Laboratories). […] After the final wash, beads were resuspended in 125 μL/well of bead suspension buffer, shaken for 30 seconds, and read on an array reader (BIO-PLEX, BIO-RAD Laboratories) according to the manufacture's instructions. Data were analyzed using analytical software (BIO-PLEX MANAGER 3.0, BIO-RAD Laboratories). […]

Among the data in patent publication US20100093076A1, “SOLUBLE IL-27 RECEPTOR” (priority 2006, published 2010) are IC50 values, retold here.

B1: IL-27RAm(mFc1): Extracellular domain of mouse IL27RA fused to a wild type BALB/c mouse gamma2a constant region Fc tag (protein)
chain: MNRLERVALARLETPRLEGLLELELESLEMSLELELEGTRPRHGSPRGPRLEQCYSVGPRLEGILENCSWGLPRLEGDLEGLTPRPRVLEYHQSQKYHPRNRVWGLVKVPRSKQSWVTIPRRGLQFTMADKLELEIWGTQKGRPRLEWSSVSVASNLEGLTQMKPRDTPRQIFSQVASPISGLGLATLEGLATVQWAPRPRVWPRPRQKALETCQFRYKGLCQAGLAWTRLEGLPRQLEKTDGLETPRVGLMQNLEGLPRGTCYQVSGRCQVGLNGYPRWGGLWSSPRLESFQTPRFLEDPRGLDVWVSGTVCGLTSGKRAALELEVWKDPRRPRCVQVTYTVWFGAGDITTTQGLGLVPRCCKSPRVPRAWMGLWAVVSPRGNSTSWVPRPRTNLESLEVCLEAPRGLSAPRCDVGVSSADGSPRGIKVTWKQGTARGSPRLEGLYVVASPWAQDGDSLEDKLENWTRLEPRPRGNLESTLELEPRGGLFKGGVPRYRITVTAVYSGGLEAAAPRSVWGFRGLGLLEVPRLEAGPRAVWRLEPRDDPRPRGTPRVVALAWGGLVPRRHQLERGQATHYTFCIQSRGLESTVCRNVSSQTQTATLEPRNLEHSGSFKLEWVTVSTVALAGQGPRPRGPRDLESLEHLEPRDNRIRWKALEPRWFLESLEWGLELELEMGCGLESLEASTRCLEQARCLEHWRHKLELEPRQWIWGLRVPRDPRANSNSGQPRYIKGLVSLEPRQPRPRKDGPRILEGLVGLGLVGLLEQPRVVGLSPRKASAPRIYSGYGLKHFLEPRTPRGLGLLEGLELEV
modifications: left off: a dimerising Fc or GST
notes: Extracellular domain of mouse IL27RA fused to a wild type BALB/c mouse gamma2a constant region Fc tag
As for B1, the IC50 amounted to 4.83 nM.
